Here are results for 19 molecules from patent US20230174616A1 (UNIVERSITY OF SOUTHERN CALIFORNIA, published 2023).

*1 amine or outer side, *2 acyl side, *3 side chain or, on linkers, in order; H or OH if unused. Where no end group is shown, it is not given here. [ ]: non-standard residue; d: D form. Met(35S) = [35S]-methionine label, C[35S]CC[C@H](N[*:1])C(=O)[*:2]; 35S = [35S]-methionine radiolabel; Pra = C#CC[C@H](N)C(=O)O

T1: hPD-L2* (recombinant glycosylated human PD-L2 ectodomain, L20-T220, expressed in Expi293F cells) (human, UniProt Q9BQ51 20-220, glycosylated; Avi tag biotinylated in vitro with BirA)
T1 construct: range 20-220
T1 sequence: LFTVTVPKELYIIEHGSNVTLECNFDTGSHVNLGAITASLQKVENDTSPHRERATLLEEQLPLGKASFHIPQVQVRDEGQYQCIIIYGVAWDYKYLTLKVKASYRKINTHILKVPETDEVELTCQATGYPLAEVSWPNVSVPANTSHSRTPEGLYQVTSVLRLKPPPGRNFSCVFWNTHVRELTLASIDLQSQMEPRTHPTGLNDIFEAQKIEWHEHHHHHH

B1: [35S]-labeled SPAM peptide (in vitro translated) (peptide)
peptide: M(35S)PIFLDHILNKFWILHYAGSGSSGHHHHHHSS
notes: Translated in reticulocyte lysate; also called [35S]-SPAM; radiolabeled SPAM peptide
B2: SPAM I8A variant (peptide)
peptide: M(35S)PIFLDHALNKFWILHYAGSGSSGHHHHHHSS
notes: in vitro translated alanine-scan variant
B3: SPAM L5A variant (peptide)
peptide: M(35S)PIFADHILNKFWILHYAGSGSSGHHHHHHSS
notes: as for B2
B4: SPAM H16A variant (peptide)
peptide: [Met(35S)]PIFLDHILNKFWILAYAGSGSSGHHHHHHSS
notes: as for B2
B5: SPAM L9A variant (peptide)
peptide: M(35S)PIFLDHIANKFWILHYAGSGSSGHHHHHHSS
notes: as for B2
B6: SPAM F4A variant (peptide)
peptide: [Met(35S)]PIALDHILNKFWILHYAGSGSSGHHHHHHSS
notes: as for B2
B7: SPAM I14A variant (peptide)
peptide: [Met(35S)]PIFLDHILNKFWALHYAGSGSSGHHHHHHSS
notes: as for B2
B8: SPAM L15A variant (peptide)
peptide: M(35S)PIFLDHILNKFWIAHYAGSGSSGHHHHHHSS
notes: as for B2
B9: SPAM F12A variant (peptide)
peptide: [Met(35S)]PIFLDHILNKAWILHYAGSGSSGHHHHHHSS
notes: as for B2
B10: SPAM N10A variant (peptide)
peptide: M(35S)PIFLDHILAKFWILHYAGSGSSGHHHHHHSS
notes: as for B2
B11: SPAM W13A variant (peptide)
peptide: M(35S)PIFLDHILNKFAILHYAGSGSSGHHHHHHSS
notes: as for B2
B12: SPAM P2A variant (peptide)
peptide: M(35S)AIFLDHILNKFWILHYAGSGSSGHHHHHHSS
notes: as for B2
B13: SPAM I3A variant (peptide)
peptide: M(35S)PAFLDHILNKFWILHYAGSGSSGHHHHHHSS
notes: as for B2
B14: SPAM H7A variant (peptide)
peptide: [Met(35S)]PIFLDAILNKFWILHYAGSGSSGHHHHHHSS
notes: as for B2
B15: SPAM D6A variant (peptide)
peptide: [Met(35S)]PIFLAHILNKFWILHYAGSGSSGHHHHHHSS
notes: as for B2
B16: SPAM K11A variant (peptide)
peptide: M(35S)PIFLDHILNAFWILHYAGSGSSGHHHHHHSS
notes: as for B2
B17: mPD-1 (extracellular domain of mouse PD-1, L15 to S157, C83S, HA tag and His tag, expressed in E. coli) (receptor)
chain: MALEVPNGPWRSLTFYPAWLTVSEGANATFTCSLSNWSEDLMLNWNRLSPSNQTEKQAAFSNGLSQPVQDARFQIIQLPNRHDFHMNILDTRRNDSGIYLCGAISLHPKAKIEESPGAELVVTERILETSTRYPSGGYPYDVPDYALEHHHHHH
notes: also called HA-tagged mPD-1; murine variant of PD-1

For one assay, the target named is mPD-L1 (extracellular domain of mouse PD-L1, A18 to H239, expressed in E. coli, biotinylated) (mouse, biotin on the epsilon-amino group of the Avi tag lysine). The assay is described as follows: radioactive pull-down of [35S]-labeled SPAM on immobilized target, normalized to hPD-L1.
Chain of mPD-L1 (extracellular domain of mouse PD-L1, A18 to H239, expressed in E. coli, biotinylated) (mouse, biotin on the epsilon-amino group of the Avi tag lysine) (chain, as listed by the source limits assumed): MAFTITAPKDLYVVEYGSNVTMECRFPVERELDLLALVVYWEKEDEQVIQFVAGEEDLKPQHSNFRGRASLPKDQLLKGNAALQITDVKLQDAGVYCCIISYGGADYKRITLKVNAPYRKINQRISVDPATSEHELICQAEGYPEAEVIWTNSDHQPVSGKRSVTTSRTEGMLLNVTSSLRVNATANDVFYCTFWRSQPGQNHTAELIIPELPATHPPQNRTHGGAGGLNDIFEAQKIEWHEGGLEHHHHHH
For the molecule B1, the binding result was “no binding”.

In a further assay the target is T2, biotinylated hPD-L1 (extracellular domain of human PD-L1, Ala18 to Thr239, expressed in E. coli, … (human, biotin on the epsilon-amino group of the Avi tag lysine (BirA))).
T2 construct: also called recombinant hPD-L1; non-glycosylated hPD-L1
The assay is described as follows: radioactive pull-down of [35S]-labeled variant on immobilized hPD-L1, normalized to SPAM. As for the experimental part: (§1) The conservation level for each doped residue in the X₁₇ library was obtained from next-generation sequencing data. […] FIG. 3 discloses SEQ ID NO: 180. […] Each measurement was carried out in triplicate and error bars show the standard deviation of the mean. (Students t-test; p value <0.05 (*), <0.01 (**), <0.005 (***)<0.001 (****))
[³⁵S]-labeled peptides were translated as described above by including 2 μCi labeled methionine (Perkin Elmer) per 10 pmol of template in the translation reaction. Each peptide was tested with a […] (for X₉-library derived peptides) (SEQ ID NO: 11) or a […] (for X17-library derived peptides) (SEQ ID NO: 12) C-terminal sequence. […] The supernatant was removed and was counted. The beads were subsequently washed three times with 1 mL of blocking buffer and the washes were also counted. Finally, the beads were resuspended in 1 mL of blocking buffer and were counted separately. The ratio of the counts remaining on the beads to the total counts added to the binding reaction (the sum of the counts for supernatant, washes, and beads) was calculated to determine the percent bound.
For the molecule [Met(35S)]PIFLDHILNKFWILHYGGSGSSGHHHHHHSS [SPAM A18 variant (glycine substituted for alanine at position 18)], the binding result is “no binding”.

For another assay, the target named is T2, biotinylated hPD-L1 (extracellular …). The assay is described as follows: radioactive pull-down of [35S]-labeled alanine variant on immobilized hPD-L1, normalized to SPAM. As for the experimental part: as §1
[³⁵S]-labeled peptides were translated as described above by including 2 μCi labeled methionine (Perkin Elmer) per 10 pmol of template in the translation reaction. Each peptide was tested with a […] (for X₉-library derived peptides) (SEQ ID NO: 11) or a […] (for X17-library derived peptides) (SEQ ID NO: 12) C-terminal sequence. Binding assays using [35S]-labeled peptide-RNA fusions were similarly performed on hPD-L1 immobilized beads using 75 pmol hPD-L1 immobilized on streptavidin or neutravidin agarose beads (Thermo Fisher scientific) in blocking buffer (20 mM HEPES-KOH pH 7.5, 150 mM NaCl, 0.2% (v/v) Tween-20, 1 mg/mL BSA, 50 μg/mL tRNA and 0.02 mM biotin) at 4° C. for 1 h. The supernatant was removed and was counted.
For the molecule B2, the binding result is “binds”.
The same measure, in the same setting: the result for B3 reads “binds”; that for B4, “no binding”; that for B5, “binds”.
The same measure, in the same setting: the result for B6 reads “binds”; that for B7, “no binding”; that for B8, “no binding”.
As to B9, the binding result was “no binding”.
Consider B10, for which the binding result is recorded as “no binding”.
On the same count and under the same terms, the result for B11 reads “no binding”; that for B12, “binds”; that for B13, “binds”.
Still for that read-out and setting: for B14 the value was “no binding”; for B15, “no binding”; for B16, “no binding”.

The next assay deals with T1, hPD-L2* (recombinant glycosylated human …). The assay is described as follows: radioactive pull-down of [35S]-labeled SPAM on immobilized target, normalized to hPD-L1 [cont.) D].
In the case of B1, the binding result was “no binding”.

A further assay addresses T2, biotinylated hPD-L1 (extracellular …). The assay is described as follows: SPR (Biacore T-100), biotinylated hPD-L1 on SA chip, mPD-1 0.15-29 uM as analyte, 25 C, one-site saturation fit. On the procedure: SPR analysis was performed on a Biacore T-100 at the USC Nanobiophysics core. […] The response values were fit to a one-site saturation binding model in GraphPad Prism to obtain an equilibrium binding constant.
Usually Kd stands for the free concentration of one partner at which half of the binding sites on the other are occupied at equilibrium, for simple one-to-one binding. A low value points to a tighter complex. As to B17, binding was characterised by a dissociation constant (Kd) of 3200 nM.

Another assay shares this target. The assay can be described thus: ELISA/IP: 100 nM biotinylated hPD-L1 on streptavidin magnetic beads, SPAM 0.1, 1, 10 uM; competitor 100 nM HA-tagged mPD-1 detected with anti-HA-HRP. On the procedure:
For ELISA/IP assays, 20 μL of MyOne™ Streptavidin T1 magnetic beads Dynabeads™ (Thermo Fisher Scientific) were loaded with 100 nM biotinylated hPD-L1 in assay buffer (20 mM HEPES-KOH pH 7.5, 150 mM NaCl, 0.2% (v/v) Tween-20, 1 mg/mL BSA and 50 μg/mL tRNA) at 4° C. […] The samples were then washed and incubated with a 1:5,000 dilution of HRP conjugated anti-HA antibody (Pierce HA Antibody, Rockford. Ill., USA) for 1 h at 4° C. The beads were washed again and developed with TMB Substrate Kit (Thermo Scientific) for 30 minutes and the reactions stopped by adding 100 μL of […] sulfuric acid.
By IC50 is commonly meant the concentration at which inhibition is half-maximal. The low end stands for inhibition by little substance, the high end for a need for much substance. Turning to MPIFLDHILNKFWILHYASG[Pra]-NH2 [SPAM peptide (synthetic, MPIFLDHILNKFWILHYASG-Pra)], the IC50 was ~1100 nM.

The target of another assay is T3, mPD-L1 expressed on CHO cells (CHO-mPD-L1) (mouse, UniProt Q9EP73 19-290).
T3 construct: whole, on cells; The construct in the CHO cells is not described
T3 sequence (Q9EP73 19-290): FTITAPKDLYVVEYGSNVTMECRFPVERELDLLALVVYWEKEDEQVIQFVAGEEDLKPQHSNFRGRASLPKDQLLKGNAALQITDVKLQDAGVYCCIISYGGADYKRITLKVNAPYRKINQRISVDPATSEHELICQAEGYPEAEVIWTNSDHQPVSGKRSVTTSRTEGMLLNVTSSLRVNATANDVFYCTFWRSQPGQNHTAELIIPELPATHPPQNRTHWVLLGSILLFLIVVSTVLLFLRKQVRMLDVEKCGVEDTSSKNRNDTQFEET
The assay is described as follows: flow cytometry competition on CHO-mPD-L1 cells: pre-incubation with the peptide, then Fluorescein-16373; % of median fluorescence intensity [cont.) D]. From the text:
Bars represent means±SD, n=3. One-way ANOVA with Dunnett's multiple comparison's test p value <0.05 (*), <0.01 (**), <0.001 (***).
Cells were then washed three times with cold serum free DMEM. Cells were subsequently processed by flow cytometry with a BD FACSCalibur system using the FL1 channel. FlowJo v10.1 was used to gate to the major population and median FL1 fluorescence reported.
For the molecule MPIFLDHILNKFWILHYASG[Pra]-NH2 [SPAM peptide (synthetic, MPIFLDHILNKFWILHYASG-Pra)], the binding result is “no binding (tested: 10 µM)”.
